# Experimental data published in the DeepSol protein solubility set.
# Experiment: soluble on expression in E. coli; label from the status in PepcDB or PDB records
row,Sequence,soluble on expression in E. coli
1,MNEQWLEHLPLKDIKEISPVSGGDVNEAYRVETDTDTFFLLVQRGRKESFYAAEIAGLNEFERAGITAPRVIASGEVNGDAYLVMTYLEEGASGSQRQLGQLVAQLHSQQQEEGKFGFSLPYEGGDISFDNHWQDDWCTIFVDKRLDHLKDELLNRGLWDANDIKVYDKVRRQIVAELEKHQSKPSLLHGDLWGGNYMFLKDGRPALFDPAPLYGDREFDIGITTVFGGFTSEFYDAYNKHYPLAKGASYRLEFYRLYLLMVHLLKFGEMYRDSVAHSMNKILQDTTSLEHHHHHH,not soluble
2,MGSDKIHHHHHHMRKLISIILLLLTININSQIVELRPVKVPAEHAEYFETIHTEYSIKTAQDAKDKGKLYGWWVAKRLNTNEDDFNYLFITVHPSVESLIDNEYWWQNSEEVTGYKPEILYKMADLFEFDKQYIYQVEMQIPDAAEAKYIIINFATPDDLNTVLKESKEIVMPHFQKNLIKSGMVGWGVATKITPQGSNYSSFSTWDSYDSLENMMKHLGGGAAIEGLPLNKLTPIEWSMRPIFRVITGTK,not soluble
3,MGSDKIHHHHHHMTALDKTGLKILNFQQLLNQLTAKTQELFGDDVNTDQNSALGMYIRVISWLQNIVNQDLEAVYYSSFVDQAEGVSLDRLGSNYSVTRNPAQAATVMLDFTGTTGTVIPEETVYTTESGVEFEMVDTVTLDDSGKGSGEAVCTALDETGNVAPNTISVQGENIAGIESVTNPTQASGGTEIETDDAYRQRIHLSMESQPGPTYYGLYTGLYALPGVEQVQIVPNLTMETDSYGNPPKSLHFYVRGGREDDVAQAILDNIAAGIQTVGKIKEAVKDIGGHTHDVFFDTATVVPIYVNMSLKTSDDFNSETSPVEIVQAIKDYLSGLIMGDKVVFTKLYQAIYNISGVEYAQVTLGRDKSAMGMADIQLDQFETAVVANDSDVEVTVDDG,not soluble
4,MGSDKIHHHHHHMDSNYTKAGYLTEPFKIFHLRDEHKLNIDFHYHDFHKILIHLHGNVSYCIEGRSYELKEHDIVLVNAGEVHKPILNDDSIYERIIIYVSQQLIDDYVSKGYDLACCFKQAYANQSHVLRLAATKGSRLADTIKGLDSTLRETNEYANELYQKLLFLEFLIQLNRITLHGGIEYINTFSSNKKIVEILDFLNKNLTNRISIDELADKFYMSRYHLMHTFKEETGCTIGSYITTKRLLLARDMIRDGSSVSAACDACGFGSYSSFIRAYRKQFHSTPTNT,not soluble
5,MSLSAGDSMPGPKSTFRVGVWEDRNKKCRRTMEDTHAFLYNFVQTPALNDASAKDKPEGDDLVTSDMVESDNGYFAIFDGHAGTFAADWCGKKLHIILEDIIRKNPNALIPEVLDQAFTAADAQLEKLPLKNSGCTAAVAVLRWEDRASNDRSAIKPVKPEEPIEMDKANDGSSNEEATKATNSKGKGSGRQRVLYTANVGDARIILCRGGKALRLSYDHKGSDEVEGKRIAAAGGLILNNRVNGVLAVTRALGDAYMKKLVTGHPYTTETVIQPDSDEFIIIACDGIWDVCSDQEAVDLVRNVNDPISASKQLVDYALNRFSTDNLSCMVVRLDQNKEAAVEEGHHHHHH,soluble
6,MGSDKIHHHHHHVRFATKFDLLSHIRLNAALTSARFDAEQGLWLLRLENGEQLKASFFICSAGPLSEPRYPDIPGMDTYEGRLFHSARWDHDYPLNGKRVAVIGTAASAVQIIPHIAPLAARLYVCQRSPNWIIPRLNHVYAPWEKALFRLKPIAKTNRFLLYWLHEMNRLSFNPGGFMARIGRELAEWHLRRQVIDPRLRGALRPGYPLGCKRVLLSNDYYPTLMRPNVELIDTPIDRIDPGGIVTRDGQKREVDVIICATGFNVKRMLSVEIRGLQGYRLNEAWAREPKAYQGVTVASFPNLFILLGPNTGQGHTSAILFIEAQVNYALKCIQEIARQQKRFLSVKPEAMNRYNEELQKTLSTSVWAAGCRSWYKTESGKIIGIYPGFSFQYAKQLREPRFEDYVMC,not soluble
7,MIEIAKIGDDFDRWQDLLALIMTSFAYMDGVIDPPSSAYRLTLENLAEKARAEIAFVALDSDELLGCLFCRPEPPASLYVGKLCVSPKAQGKGIGKLLLLQAEALARELALPALRLETRIELLSNHTKFAAWGFVKTAENAHAGYDRTTSIEMTKFLG,not soluble
8,MGSDKIHHHHHHMKVVPAQRCVYSFSANMAPVEEVYPGEQVVFETLDALGGSYDKIDFSKVNPATGPVFVNGVKPGDTLKVRIKRIELPRRGMIVTGKGFGVLGDEVEGFHTKELEIEKWAVLFDGVRIPIHPMVGVIGVAPQEGEYPTGTAHRHGGNMDTKEITENVTVHLPVFQEGALLALGDVHATMGDGEVCVSACEVPAKVVVEIDVSKEEIKWPVVETNDAYYIIVSLPDIEEALKEVTRETVWFIQRRKTIPFTDAYMLASLSVDVGISQLVNPAKTAKARIPKYIFTGV,soluble
9,MSLTKKDVIKLLEQIATYMELKGENTFKISAYRKAAQSLELDERPLDEISDVTELKGIGKGVAEVINDYRETGESQYLQQLQEEVPEGLIPLLKIQGLGSKKIAKLYKELNIVDKASLQVACENGKVSELSGFAKKTEQNILEAVKQLGAKKDRYPIDQMRRLNQEIIDYIDTLNYIDQYSSAGSFRRFKEMSKDLDFIISTDNPKAVQQQLLNIPNKVKEVAVGNTKVSLELAYDDETIGVDFRLIEPRAFYHTLQHFTGSKEHNIRIRQLAKARDEKVSEYGIEQADGTLIQYDSEAKIYEHFNVNFIPPAMREDGSEFDKDLSNIITLDDINGDIHMHTTYSDGAFSIRDMVEANIAKGYKFMVITDHSQSLRVANGLQVERLLRQNEEIKALDKEYSEIDIYSGTEMDILPDGSLDYDDEILAQLDYVIGAIHQSFNQSEEQIMERLANACRNPYVRHIAHPTGRIIGRRDGYKPNIEQLMALAEETNTVLEINANPHRLDLNAEIVRKYPNVKLTINTDAHHTNHLDFMNYGVATAQKGFVTKDRVINALSREAFKDFIENNIKLKKEGHHHHHH,soluble
10,MRHDGRQHDELRPITFDLDFISHPEGSVLITAGNTKVICNASVEDRVPPFLRGGGKGWITAEYSMLPQATNQQTIQESSKGKISGRTMEIQRLIGRALRAVVDLEKLGERTIWIDCDVIQADGGTRTASITGAFLAMAIAIGKLIKAGTIKTNPITDFLAAISVGIDKEQGILLDLNYEEDSSAEVDMNVIMTGSGRFVELQGTGEEATFSREDLNGLLGLAEKGIQELIDKQKEVLGDSLPELK,soluble
11,MCLGVPAQIAEIHDSTRATVSMSGVSRMVSTDLLAETIDVGDWVLIHVGFALSKIDEDEAAVTLQQIKQLGGFDEELQSFESSEI,not soluble
12,MSLDLNQIKAVVFDLEGTLLDRVKSREKFIEEQYERFHDYLIHVQLADFKKAFIELDDDEDNDKPDLYKEIIKRFHVDRLTWKDLFNDFEMHFYRYVFPYYDTLYTLEKLSQKGFQIGVIANGKSKIKQFRLHSLGLMHVINYLSTSETVGFRKPHPKIFEDMIDQLGVLPEQIMYVGDDALNDVAPARAMGMVSVWYKQEDAEIEPLEEEVDFTITTVEELLTILPIKNDNKGENYGSIYEGHHHHHH,soluble
13,MAQKVEAGGGAGGASWDDGVHDGVRKVHVGQGQDGVSSINVVYAKDSQDVEGGEHGKKTLLGFETFEVDADDYIVAVQVTYDNVFGQDSDIITSITFNTFKGKTSPPYGLETQKKFVLKDKNGGKLVGFHGRAGEALYALGAYFATTTTPVTPAKKLSAIGGDEGTAWDDGAYDGVKKVYVGQGQDGISAVKFEYNKGAENIVGGEHGKPTLLGFEEFEIDYPSEYITAVEGTYDKIFGSDGLIITMLRFKTNKQTSAPFGLEAGTAFELKEEGHKIVGFHGKASELLHQFGVHVMPLTN,soluble
14,MGSDKIHHHHHHMIVALFALLASGCGHSQRTLEFRGICVDDPQGENGLYNPGRGFRLETAVDVLHEKDTPTEELNELSAKYVADSVSLSQSYFYLTYLIGKELSEENFRTMQAYFDELQKQGKKAVLRFAYERDFMGRSPVGPTGEQILAHLDQLKPFLEKNKDLILVVQAGMIGAWGEWHSSVQGLENSEETKAAVLEKLLSVVPAERNVQVRLPEFKNLLKDKPELYKRLSFHDDFIVIRPDRWDADMHEGTPKFDQIVAESPYLVVDGELPWGFWSVGADPDSPSAGWIIDGMQAARRLFLQHYTSLSIIHNYKEQHPNNRFDENNPPEYSMVVWKKTMITEDSLLQHHMPVSDSYFRKKDGTKVKRNMFDYIRDHLGYRIELQSLQLPSKFVSGKENVLKLSLKNRGFATVFGEHPVYFVLIDDAGEVTEFPTDANPKNWQPFEPKDSAYTSLMHTVDVSLELPASVTAGTYKLGLWIPDGSDRLRYNPRYAIHCANGDTDWWISKDGKYGVNVLTAVEVE,not soluble
15,MGFRLGIVGLPNVGKSTLFNALTKTMKAQAANYPFCTIEPNVGVVEVPDERLYKLAEIEKSQKITPTFIEFVDIAGLVKGASKGEGLGNQFLSHIREVDAVAMVLRAFEDENIVHVEGSVDPVRDKEIVEIELIAKDLESVNRRIEKVQKVAKGGDKKAREEMEHLNALKEILENLEPIRKYADKLPPETLEYAKKTLFLLTVKPVMYIANISEKDLPEGEGNPHVERIKEMANQENAPVVVISAELEAQLAGLSEEEQKEMLEAYGLKEPGLNKVIRTGYRLLDLITFFTAGEREARAWTVKRGTKAPQAAGKIHSDMERGFIAAEVISYEDLIKAGSWAKAKEQGLIRLEGKDYEIQDGDVVYFRFNV,soluble
16,MGSDKIHHHHHHMADWTDNLPEAAQAYLENRRLDEVECIISDLPGIARGKAVPASKFARQDYFHLPDSIFYQTITGDWGDAAGEEGFIERDMILRPDYSTATAAPWTGDWTLQVIHDAYDRDGDPIPFSPRNVLRRVVSLYHAQGWKPVVAPEMEFFLVARNLDPAKEIEPMMGRSGRPAAARQAYSMTAVDEFGPVIDDIYDFAEAQGFEIDGITQEGGAGQLEINLRHGSPVRLADEVFYFKRLIREAALRHNCFATFMAKPIENEPGSAMHIHHSIVDMETGENIFSGPQGGETDAFYHFIAGLQNHLPSGLAVMAPYVNSYRRYVKDHAAPINLEWGRDNRTTGIRVPLSGPAARRIENRLAGMDCNPYLGIAVSLACGYLGLMEELRPRKQFKGDAYVGEGDIPQVMGDALDLFDEAKALHEVLGPEFARVYSIVKRAEYNEFLQVISPWEREHLLMNV,not soluble
17,MAKSTVRYVCSACGAVSLKYQGRCFECQSWGTLVETHLEEPDAKVRKKRPAGSMPEVQNLDDDAPSGFHRTLTGIGELDRVLGGGLMEASAILVGGEPGIGKSTLMLQLVPRLAGKKVLYVAGEESPNQIRERARRLSIKAPNLRLVSEVALERILDAIANEQPEMVIVDSIQTVYSSDYQSSAGTITQIRECAASLIRAAKEQNFILLIIGHITKEGSLAGPKALEHMVDTVVQFEGENYQRYRIIRSVKNRFGPTNEIGVFKMGEEGLTEVSNPSEFFISDRRTDVPGTAVLAGIEGSRALMVEVQALVSRTGYSMPQRISTGFDLKRIAIILAVLEKRLQFQTAGQDVFVKIAGGLKLVEPAADLAIAAAVASGLQDKPCNPTACCCGEIGLSGELRAISDGERRIREAVHLGFTSIVLPESNTRELKPSLKKLPIRIAGCRTLHEALEAMGV,not soluble
18,MLRVLVGAVLPAMLLAAPPPINKLALFPDKSAWCEAKNITQIVGHSGCEAKSIQNRACLGQCFSYSVPNTFPQSTESLVHCDSCMPAQSMWEIVTLECPGHEEVPRVDKLVEKILHCSCQACGKEPSHEGLSVYVQGEDGPGSQPGTHPHPHPHPHPGGQTPEPEDPPGAPHTEEEGAED,soluble
19,MSLDKWEMERTDITMKHKLGGGQFGEVYEGVWKKYSLTVAVKTLKEDTMEVEEFLKEAAVMKEIKHPNLVQLLGVCTREPPFYIITEFMTYGNLLDYLRECNRQEVSAVVLLYMATQISSAMEYLEKKNFIHRDLAARNCLVGENHLVKVADFGLSRLMTGDTYTAHAGAKFPIKWTAPESLAYNKFSIKSDVWAFGVLLWEIATYGMSPYPGIDPSQVYELLEKDYRMERPEGCPEKVYELMRACWQWNPSDRPSFAEIHQAFETMFQESSISDEVEKELGKRGEGHHHHHH,soluble
